The numbers were not newly measured in patent US20140378381A1 (LATITUDE PHARMACEUTICALS, INC., priority 2011, published 2014), which cites them from elsewhere.

For data set [1] the following is noted: after injection.

Regarding glucagon, in data set [1], the onset of action was 5 to 20 min. Besides, under “acidic solution (pH 2-4), 24 hours at 37° C.”, the “glucagon decomposed into degradation products” value was 5-70%. Further, where the note is “aqueous solutions of pH 3 or less”, the “aggregation in aqueous solution” value was “aggregate to form a gel within an hour”. For the same substance, for the setting “physiological pH (pH 4-8)”, the solubility in water entry is on record as “insoluble”.
